Values quoted from earlier work, collected in paper PMC9760969.

Target: CD95L (Homo sapiens) (UniProt P48023)
Sequence of UniProt P48023 (P48023 130-281): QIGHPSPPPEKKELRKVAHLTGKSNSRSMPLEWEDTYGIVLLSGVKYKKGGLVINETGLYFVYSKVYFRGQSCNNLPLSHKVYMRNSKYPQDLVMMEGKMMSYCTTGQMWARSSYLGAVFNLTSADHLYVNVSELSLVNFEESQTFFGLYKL

- Kd: 1.23 pM
Substance: DR5 (from UniProt O14763)
